The test has as its target SARS-CoV-2 spike protein variant V376F on VSV pseudoparticles (SARS-CoV-2) (UniProt P0DTC2). Briefly: cell-based or functional assay.

As for mAb10987 (antibody), the Neutralization IC50 turned out to be 0.0178 nM.
